Data reported in patent US20230265179A1 (TWIST BIOSCIENCE, published 2023).
Substitutions are numbered along the chain they refer to.

T1: IL1RL1 (UniProt Q01638 19-328, limits assumed)
T1 construct: SPR analyte
T1 sequence (looked up): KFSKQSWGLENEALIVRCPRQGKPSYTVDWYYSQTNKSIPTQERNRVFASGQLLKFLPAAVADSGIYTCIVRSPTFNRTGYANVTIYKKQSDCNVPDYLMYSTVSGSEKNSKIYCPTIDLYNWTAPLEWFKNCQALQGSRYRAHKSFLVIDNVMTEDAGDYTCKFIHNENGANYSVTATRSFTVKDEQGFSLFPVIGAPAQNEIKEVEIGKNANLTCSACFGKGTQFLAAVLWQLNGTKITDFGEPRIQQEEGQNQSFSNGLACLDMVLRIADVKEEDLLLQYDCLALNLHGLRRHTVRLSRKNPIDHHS

T2: CD40L over-expressed on Expi293 cells (UniProt P29965 1-261, limits assumed)
T2 construct: whole, on cells; also called cytokine over-expressing Expi293 cells
T2 sequence (looked up): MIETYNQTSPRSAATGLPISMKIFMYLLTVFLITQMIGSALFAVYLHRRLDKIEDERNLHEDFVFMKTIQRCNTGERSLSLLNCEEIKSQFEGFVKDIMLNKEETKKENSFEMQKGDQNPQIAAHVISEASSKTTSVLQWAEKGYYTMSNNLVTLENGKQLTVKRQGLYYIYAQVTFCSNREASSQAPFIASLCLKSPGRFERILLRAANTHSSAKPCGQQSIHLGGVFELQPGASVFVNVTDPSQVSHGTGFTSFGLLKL

B1: IL1RL1-84 (Fc fusion, not shown: a dimerising Fc or GST)
VHH: EVQLVESGGGLVQPGGSLRLSCAASGGIISNYHMGWFRQAPGKEREGVAAIYSDGSTYYADRVKGRFTISADNSKNTAYLQMNSLKPEDTAVYYCAARPVRVDDISLPVGFDWGQGTLVTVSS
notes: VHH-Fc on IgG2 Fc
B2: CD40L-128 (VHH)
VHH: EVQLVESGGGLVQPGGSLRLSCAASGLTFGTHVMGWFRQAPGKEREFVASIDWSGRSTYYADSVKGRFTISADNSKNTAYLQMNSLKPEDTAVYYCAADVWGLGYDWGQGTLVTVSS
B3: CD40L-71 (VHH)
VHH: EVQLVESGGGLVQPGGSLRLSCAASGSIDNIHAMGWFRQAPGKERKFVAVIYSSDGSTLYADSVKGRFTISADNSKNTAYLQMNSLKPEDTAVYYCAAEPYGSGSSLMSEYDWGQGTLVTVSS
B4: CD40L-117 (VHH)
VHH: B3 VHH with S27F, D29G, I31Y, K46E, V48I, S53W, S54R, T58S, M108I
B5: CD40L-109 (VHH)
VHH: B3 VHH with D29L, N30S, H32N, K46E
B6: CD40L-78 (VHH)
VHH: B3 VHH with S27G, I28T, D29F, N30S, I31V, H32F, K46E, M108I
B7: CD40L-121 (VHH)
VHH: B3 VHH with S27R, I28T, D29F, N30S, I31T, H32Y, K46E, M108I
B8: CD40L-110 (VHH)
VHH: B3 VHH with I28S, D29G, N30V, H32N, K46E, V48I, S53W, S54R, T58S, M108I
B9: CD40L-123 (VHH)
VHH: B3 VHH with S27R, I28T, D29F, N30S, H32Y, K46E
B10: CD40L-132 (VHH)
VHH: B3 VHH with N30R, H32N, K46E, V48I, S53W, S54R, T58S, M108I
B11: CD40L-81 (VHH)
VHH: B3 VHH with S27G, D29F, N30G, H32N, K46E, V48I, S53W, S54R, T58S, M108I
B12: CD40L-97 (VHH)
VHH: B3 VHH with S27G, I28T, D29F, N30G, I31H, H32Y, K46E, M108I
B13: CD40L-83 (VHH)
VHH: B3 VHH with S27R, I28T, D29S, H32Y, K46E, V48I, S53W, S54R, T58S, M108I
B14: CD40L-158 (antibody, V domains shown)
VH: EVQLLESGGGLVQPGGSLRLSCAASGGYNFRDYMHWVRQAPGKGLEWVSSIGRHGGRTYYADSVKGRFTISRDNSKNTLYLQMNSLRAEDTAVYYCAKDLGQGFDYWGQGTLVTVSS
VL: DIQMTQSPSSLSASVGDRVTITCRASQDVSSGVAWYQQKPGKAPKLLIYQMSHLASGVPSRFSGSGSGTDFTLTISSLQPEDFATYYCSSQDTVTRVLGQGTKVEIK
notes: IgG2
B15: CD40L-170 (antibody, V domains shown)
VH: B14 VH with R31K
VL: B14 VL
notes: IgG2
B16: CD40L-156 (antibody, V domains shown)
VH: EVQLLESGGGLVQPGGSLRLSCAASGFMFSWYDMGWVRQAPGKGLEWVSSIDWHGWVTYYADSVKGRFTISRDNSKNTLYLQMNSLRAEDTAVYYCAKAYYGGFDYWGQGTLVTVSS
VL: DIQMTQSPSSLSASVGDRVTITCRASQPIGPDLLWYQQKPGKAPKLLIYDNTNRPSGVPSRFSGSGSGTDFTLTISSLQPEDFATYYCQQSQAAPLTFGQGTKVEIK
notes: IgG2
B17: CD40L-140 (VHH)
VHH: EVQLVESGGGLVQPGGSLRLSCAASGNIFSHNAMGWFRQAPGKEREFVASMRGSGSTVYADSVKGRFTISADNSKNTAYLQMNSLKPEDTAVYYCAKSVYGDYIFDYWGQGTLVTVSS
B18: CD40L-159 (antibody, V domains shown)
VH: EVQLLESGGGLVQPGGSLRLSCAASGFDFSDYEMSWVRQAPGKGLEWVSSITSEGGSTYYADSVKGRFTISRNNSKNTLYLQMNSLRAEDTAVYYCAKPDVLFDYWGQGTLVTVSS
VL: DIQMTQSPSSLSASVGDRVTITCRASQDISNYLNWYQQKPGKAPKLLIYGKKNRPSGVPSRFSGSGSGTDFTLTISSLQPEDFATYYCQQGYTRTDIDNTFGQGTKVEIK
notes: IgG2
B19: CD40L-161 (antibody, V domains shown)
VH: B18 VH with N73D
VL: DIQMTQSPSSLSASVGDRVTITCRASQDVSSGVAWYQQKPGKAPKLLIYATSTLQSGVPSRFSGSGSGTDFTLTISSLQPEDFATYYCQQSFSVPAFGQGTKVEIK
notes: IgG2
B20: CD40L-160 (antibody, V domains shown)
VH: B18 VH with N73D
VL: DIQMTQSPSSLSASVGDRVTITCRASQDVSSGVAWYQQKPGKAPKLLIYGKKNRPSGVPSRFSGSGSGTDFTLTISSLQPEDFATYYCQAWDRDTGVFGQGTKVEIK
notes: IgG2
B21: CD40L-166 (antibody, V domains shown)
VH: B18 VH with N73D
VL: DIQMTQSPSSLSASVGDRVTITCRASQSIISYVNWYQQKPGKAPKLLIYGASNLHSGVPSRFSGSGSGTDFTLTISSLQPEDFATYYCQQSYSTPTFGQGTKVEIK
notes: IgG2
B22: CD40L-134 (VHH)
VHH: EVQLVESGGGLVQPGGSLRLSCAASGFTFSRYEMGWFRQAPGKEREFVATITEGGARNYADSVKGRFTISADNSKNTAYLQMNSLKPEDTAVYYCAAEIGYYSGGTYFSSEAWGQGTLVTVSS
B23: CD40L-64 (VHH)
VHH: EVQLVESGGGLVQPGGSLRLSCAASGFTFSRYEMGWFRQAPGKEREMVAAIDDGGNTEYADSVKGRFTISADNSKNTAYLQMNSLKPEDTAVYYCASDHYDTDTKSDVYNWGQGTLVTVSS
B24: CD40L-127 (VHH)
VHH: B23 VHH with M47L, A50S, D52T, D53N, N56S, E58Y
B25: CD40L-147 (VHH)
VHH: B23 VHH with M47F, A50T, D52T, D53E, N56A, T57R, E58N
B26: CD40L-137 (VHH)
VHH: EVQLVESGGGLVQPGGSLRLSCAASGFTFSRYEMGWFRQAPGKEREFVAAIDDGGNTEYADSVKGRFTISADNSKNTAYLQMNSLKPEDTAVYYCAAVYVSTWGNGYDWGQGTLVTVSS
B27: CD40L-88 (VHH)
VHH: EVQLVESGGGLVQPGGSLRLSCAASGFTFDDYDMGWFRQAPGKEREFVAAIDWSGGSTYYADSVKGRFTISADNSKNTAYLQMNSLKPEDTAVYYCASDHYDTDTKSDVYNWGQGTLVTVSS
B28: CD40L-148 (VHH)
VHH: B27 VHH with D30G, D31N, F47L, D52S, W53M, G56D, S57D, T58A, Y59A
B29: CD40L-87 (VHH)
VHH: B27 VHH with D52S, W53M, G56D, S57D, T58A, Y59A
B30: CD40L-131 (VHH)
VHH: B27 VHH with F29Y, D30G, D31N, D52Y, W53P, G56R, S57N, T58A
B31: CD40L-92 (VHH)
VHH: B27 VHH with Y32S, W53A, S57F, Y59E
B32: CD40L-138 (VHH)
VHH: B27 VHH with D30G, D31N, A50V, W53T, S54N, S57L, T58I, Y59A
B33: CD40L-85 (VHH)
VHH: EVQLVESGGGLVQPGGSLRLSCAASGLNLSRLDMGWFRQAPGKEREFVAAVSGSGDDTYYADSVKGRFTISADNSKNTAYLQMNSLKPEDTAVYYCASDHYDTDTKSDVYNWGQGTLVTVSS
B34: CD40L-86 (VHH)
VHH: B27 VHH with F27R, F29L, D30T, D31N, A50V, D52N, W53S, S54G, Y59Q
B35: CD40L-143 (VHH)
VHH: B27 VHH with F27R, D30S, D31S, W53A, S57F, Y59E
B36: CD40L-136 (VHH)
VHH: B27 VHH with D30S, D52S, W53M, G56E, S57D, T58A, Y59A

Molecular target: T1, IL1RL1
Experiment: SPR (Carterra LSA), antibody amine-coupled, 1:1 model;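 further: HC30M sensor chip at 25 °C in HBS-TE, analyte at rising concentrations in buffer containing 0.5 mg/mL BSA, 5 min association then 15 min dissociation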
Method: SPR experiments were performed on a Carterra LSA SPR biosensor equipped with a HC30M chip at 25° C. in HBS-TE. Antibodies were diluted to 10 μg/mL and amine-coupled to the sensor chip by EDC/NHS activation, followed by ethanolamine HCl quenching. Increasing concentrations of analyte were flowed over the sensor chip in HBS-TE with 0.5 mg/mL BSA with 5-minute association and 15-minute dissociation. Following each injection cycle the surface was regenerated with 2× 30-second injections of IgG elution buffer (Thermo). Data were analyzed in Carterra's Kinetics Tool software with 1:1 binding model.

Kd [nM]	koff [s⁻¹]	kon [M⁻¹ s⁻¹]	Binder
≤ 0.0673	≤ 1e-05	149000	B1

Molecular target: T2, CD40L over-expressed on Expi293 cells
Experiment: flow cytometry, 100 nM antibody, CD40L-Expi293 vs parent Expi293 cells;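 further: ratio is the mean fluorescence intensity on CD40L-overexpressing Expi293 cells divided by the mean fluorescence intensity on parental Expi293 cells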
Method: All incubations and washes were in buffer containing PBS+1% BSA. MFI Ratio is defined by the mean fluorescence intensity (MFI) of the cytokine over-expressing Expi293 cell over the Expi293 parent cell. […] EC50 was calculated in GraphPad Prism.

100 nM FACS (MFI Ratio) [ratio]	Binder
1.6	B2
5.9	B3
3.6	B4
4.7	B5
8.2	B6
6.9	B7
4.9	B8
6.7	B9
3.9	B10
6	B11
8.9	B12
15.7	B13
1.5	B14
0.6	B15
1.3	B16
4.3	B17
0.3	B18
0.9	B19

100 nM FACS (MFI Ratio) [ratio]	Binder
0.3	B20
1.1	B21
7.3	B22
19.4	B23
11.9	B24
7.4	B25
7.7	B26
26	B27
12.5	B28
18.3	B29
12.1	B30
6.6	B31
5.1	B32
42.6	B33
8.9	B34
8.3	B35
22.4	B36
